No end group written: not given here.
Molecular target: T1, His-tagged P3028 (human, not fully specified)
T1 construct: the tag is put first after 'PGE73=His-tag-P3028'; also called PGE73; not shown: His-tag
T1 peptide: {His‑tag}-VFDEFKPLVEEPQNLIK
Assay: chip ELISA

B1: P28R K1I (peptide)
peptide: IKLDTFFVKLSLFTER
- ELISA signal: 483

B2: P28R L3N (peptide)
peptide: KKNDTFFVKLSLFTER
- ELISA signal: 374

B3: P28R K1T (peptide)
peptide: TKLDTFFVKLSLFTER
- ELISA signal: 493

B4: P28R K1W (peptide)
peptide: WKLDTFFVKLSLFTER
- ELISA signal: 284

B5: P28R K9W (peptide)
peptide: KKLDTFFVWLSLFTER
- ELISA signal: 245

B6: P28R L3H (peptide)
peptide: KKHDTFFVKLSLFTER
- ELISA signal: 477

B7: P28R K1M (peptide)
peptide: MKLDTFFVKLSLFTER
- ELISA signal: 457

B8: P28R L3M (peptide)
peptide: KKMDTFFVKLSLFTER
- ELISA signal: 460

B9: P28R K9M (peptide)
peptide: KKLDTFFVMLSLFTER
- ELISA signal: 283

B10: P28R K2D (peptide)
peptide: KDLDTFFVKLSLFTER
- ELISA signal: 335

B11: P28R K1R (peptide)
peptide: RKLDTFFVKLSLFTER
- ELISA signal: 523

B12: P28R K9L (peptide)
peptide: KKLDTFFVLLSLFTER
- ELISA signal: 166

B13: P28R K2T (peptide)
peptide: KTLDTFFVKLSLFTER
- ELISA signal: 331

B14: P28R L3E (peptide)
peptide: KKEDTFFVKLSLFTER
- ELISA signal: 528

B15: P28R K2R (peptide)
peptide: KRLDTFFVKLSLFTER
- ELISA signal: 417

B16: P28R K2Q (peptide)
peptide: KQLDTFFVKLSLFTER
- ELISA signal: 350

B17: P28R K9Y (peptide)
peptide: KKLDTFFVYLSLFTER
- ELISA signal: 198

B18: P28R K2W (peptide)
peptide: KWLDTFFVKLSLFTER
- ELISA signal: 304

B19: P28R K9V (peptide)
peptide: KKLDTFFVVLSLFTER
- ELISA signal: 248

B20: P28R K1N (peptide)
peptide: NKLDTFFVKLSLFTER
- ELISA signal: 445

B21: P28R L3A (peptide)
peptide: KKADTFFVKLSLFTER
- ELISA signal: 427

B22: P28R K1V (peptide)
peptide: VKLDTFFVKLSLFTER
- ELISA signal: 442

B23: P28R K2N (peptide)
peptide: KNLDTFFVKLSLFTER
- ELISA signal: 432

B24: P28R K2Y (peptide)
peptide: KYLDTFFVKLSLFTER
- ELISA signal: 301

B25: P28R K9H (peptide)
peptide: KKLDTFFVHLSLFTER
- ELISA signal: 306

B26: P28R L3K (peptide)
peptide: KKKDTFFVKLSLFTER
- ELISA signal: 386

B27: P28R K2V (peptide)
peptide: KVLDTFFVKLSLFTER
- ELISA signal: 317

B28: P28R K1Y (peptide)
peptide: YKLDTFFVKLSLFTER
- ELISA signal: 315

B29: P28R L3F (peptide)
peptide: KKFDTFFVKLSLFTER
- ELISA signal: 393

B30: P28R K2E (peptide)
peptide: KELDTFFVKLSLFTER
- ELISA signal: 349

B31: P28R L3D (peptide)
peptide: KKDDTFFVKLSLFTER
- ELISA signal: 492

B32: P28R K9D (peptide)
peptide: KKLDTFFVDLSLFTER
- ELISA signal: 149

B33: P28R K9S (peptide)
peptide: KKLDTFFVSLSLFTER
- ELISA signal: 274

B34: P28R K1L (peptide)
peptide: LKLDTFFVKLSLFTER
- ELISA signal: 449

B35: P28R K1Q (peptide)
peptide: QKLDTFFVKLSLFTER
- ELISA signal: 455

B36: P28R K9R (peptide)
peptide: KKLDTFFVRLSLFTER
- ELISA signal: 374

B37: P28R K9E (peptide)
peptide: KKLDTFFVELSLFTER
- ELISA signal: 240

B38: P28R K2I (peptide)
peptide: KILDTFFVKLSLFTER
- ELISA signal: 331

B39: P28R K2L (peptide)
peptide: KLLDTFFVKLSLFTER
- ELISA signal: 343

B40: P28R K9N (peptide)
peptide: KKLDTFFVNLSLFTER
- ELISA signal: 256

B41: P28R K2S (peptide)
peptide: KSLDTFFVKLSLFTER
- ELISA signal: 281

B42: P28R K9Q (peptide)
peptide: KKLDTFFVQLSLFTER
- ELISA signal: 330

B43: P28R K9T (peptide)
peptide: KKLDTFFVTLSLFTER
- ELISA signal: 347

B44: P28R K9I (peptide)
peptide: KKLDTFFVILSLFTER
- ELISA signal: 190

B45: P28R L3I (peptide)
peptide: KKIDTFFVKLSLFTER
- ELISA signal: 454

B46: P28R K2F (peptide)
peptide: KFLDTFFVKLSLFTER
- ELISA signal: 390

B47: P28R K9A (peptide)
peptide: KKLDTFFVALSLFTER
- ELISA signal: 191

B48: P28R K9F (peptide)
peptide: KKLDTFFVFLSLFTER
- ELISA signal: 174

B49: P28R K2M (peptide)
peptide: KMLDTFFVKLSLFTER
- ELISA signal: 400

B50: P28R K1S (peptide)
peptide: SKLDTFFVKLSLFTER
- ELISA signal: 344

B51: P28R K2H (peptide)
peptide: KHLDTFFVKLSLFTER
- ELISA signal: 394

B52: P28R K2A (peptide)
peptide: KALDTFFVKLSLFTER
- ELISA signal: 309
